The values below come from publication PMC4154870, “The Cofilin Phosphatase Slingshot Homolog 1 (SSH1) Links NOD1 Signaling to Actin Remodeling” (PLoS Pathogens, 2014).

This assay concerns the target T1, GFP-SSH1 (human, UniProt Q8WYL5 1-1049).
T1 construct: Slingshot homolog 1 (SSH1); also called EGFP-SSH1; WT SSH1; source: HeLa, transiently transfected, in fixed cells
T1 sequence (looked up): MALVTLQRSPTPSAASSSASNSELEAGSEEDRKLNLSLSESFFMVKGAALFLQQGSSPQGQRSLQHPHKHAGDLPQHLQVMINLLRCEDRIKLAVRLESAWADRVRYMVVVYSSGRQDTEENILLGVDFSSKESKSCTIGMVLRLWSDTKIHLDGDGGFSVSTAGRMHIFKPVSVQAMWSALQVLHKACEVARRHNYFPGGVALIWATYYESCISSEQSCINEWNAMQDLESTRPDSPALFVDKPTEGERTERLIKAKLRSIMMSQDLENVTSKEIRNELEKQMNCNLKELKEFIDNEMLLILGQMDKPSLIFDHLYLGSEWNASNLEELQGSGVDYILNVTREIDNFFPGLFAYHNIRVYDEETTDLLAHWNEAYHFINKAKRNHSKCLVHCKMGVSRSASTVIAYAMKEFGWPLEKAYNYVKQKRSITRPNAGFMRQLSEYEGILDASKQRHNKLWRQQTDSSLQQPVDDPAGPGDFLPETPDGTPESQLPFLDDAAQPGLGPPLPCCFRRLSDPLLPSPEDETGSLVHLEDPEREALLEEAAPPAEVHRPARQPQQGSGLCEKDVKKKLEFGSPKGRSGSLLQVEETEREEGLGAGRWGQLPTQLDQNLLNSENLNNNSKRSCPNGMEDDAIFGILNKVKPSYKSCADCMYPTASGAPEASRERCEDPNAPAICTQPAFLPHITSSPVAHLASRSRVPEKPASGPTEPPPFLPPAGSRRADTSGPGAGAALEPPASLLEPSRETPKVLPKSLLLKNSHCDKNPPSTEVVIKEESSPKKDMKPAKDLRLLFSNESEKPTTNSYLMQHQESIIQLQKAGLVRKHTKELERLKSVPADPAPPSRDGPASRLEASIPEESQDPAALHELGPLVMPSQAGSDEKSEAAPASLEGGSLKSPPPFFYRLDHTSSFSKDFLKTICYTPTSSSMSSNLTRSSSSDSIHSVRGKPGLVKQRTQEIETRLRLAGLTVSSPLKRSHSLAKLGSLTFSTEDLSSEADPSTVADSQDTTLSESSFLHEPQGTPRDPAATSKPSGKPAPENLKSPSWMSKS
The experiment in a line: proximity ligation; in situ PLA (Duolink) in transiently transfected HeLa cells, fixed 24 h after transfection; rabbit GFP-specific and mouse Flag-specific primary antibodies; spot area per cell quantified by automated microscopy. The following applies: partners not purified.

B1: Flag-NOD1 (receptor, human, UniProt Q9Y239 1-953, looked up)
chain: MEEQGHSEMEIIPSESHPHIQLLKSNRELLVTHIRNTQCLVDNLLKNDYFSAEDAEIVCACPTQPDKVRKILDLVQSKGEEVSEFFLYLLQQLADAYVDLRPWLLEIGFSPSLLTQSKVVVNTDPVSRYTQQLRHHLGRDSKFVLCYAQKEELLLEEIYMDTIMELVGFSNESLGSLNSLACLLDHTTGILNEQGETIFILGDAGVGKSMLLQRLQSLWATGRLDAGVKFFFHFRCRMFSCFKESDRLCLQDLLFKHYCYPERDPEEVFAFLLRFPHVALFTFDGLDELHSDLDLSRVPDSSCPWEPAHPLVLLANLLSGKLLKGASKLLTARTGIEVPRQFLRKKVLLRGFSPSHLRAYARRMFPERALQDRLLSQLEANPNLCSLCSVPLFCWIIFRCFQHFRAAFEGSPQLPDCTMTLTDVFLLVTEVHLNRMQPSSLVQRNTRSPVETLHAGRDTLCSLGQVAHRGMEKSLFVFTQEEVQASGLQERDMQLGFLRALPELGPGGDQQSYEFFHLTLQAFFTAFFLVLDDRVGTQELLRFFQEWMPPAGAATTSCYPPFLPFQCLQGSGPAREDLFKNKDHFQFTNLFLCGLLSKAKQKLLRHLVPAAALRRKRKALWAHLFSSLRGYLKSLPRVQVESFNQVQAMPTFIWMLRCIYETQSQKVGQLAARGICANYLKLTYCNACSADCSALSFVLHHFPKRLALDLDNNNLNDYGVRELQPCFSRLTVLRLSVNQITDGGVKVLSEELTKYKIVTYLGLYNNQITDVGARYVTKILDECKGLTHLKLGKNKITSEGGKYLALAVKNSKSISEVGMWGNQVGDEGAKAFAEALRNHPSLTTLSLASNGISTEGGKSLARALQQNTSLEILWLTQNELNDEVAESLAEMLKVNQTLKHLWLIQNQITAKGTAQLADALQSNTGITEICLNGNLIKPEEAKVYEDEKRIICF
notes: NOD1; the Flag-tagged plasmid is not described in the methods; source: HeLa, transiently transfected, in fixed cells
For the molecule B1, the “area covered by PLA spots, against neighbouring GFP-negative cells” value is approximately 4 fold.
